# Test results from US20110236325A1, “METHODS TO TREAT OR PREVENT A SKIN CONDITION USING A NELL1 PEPTIDE” (NellOne Therapeutics, Inc., priority 2010, published 2011).
# Columns and labels:
# EFT-400 tissues [1] = assay: Gene expression by quantitative PCR custom array in EFT-400 tissues with or without UV irradiation; details: for AVG Ct ACTB (housekeeping gene) / AVG Ct AQP3 / AVG Ct BCL2L1 / AVG Ct COL1A1 / AVG Ct COL4A2 / AVG Ct COL5A1 / AVG Ct COL6A1 / AVG Ct COL6A2 / AVG Ct COL7A1 / AVG Ct COL8A1 / AVG Ct COL11A1 / AVG Ct COL12A1 / AVG Ct COL14A1 / AVG Ct COL15A1 / AVG Ct COL16A1 / AVG Ct DSG1 / AVG Ct ERCC1 / AVG Ct FN1 / AVG Ct GAPDH (housekeeping gene) / AVG Ct GDF15 / AVG Ct GSTM3 / AVG Ct HSPA8 / AVG Ct IL1A / AVG Ct IL1B / AVG Ct IL8 / AVG Ct KAL1 / AVG Ct KRT16 / AVG Ct LAMA1 / AVG Ct LAMA2 / AVG Ct LAMA3 / AVG Ct LAMA5 / AVG Ct LAMB1 / AVG Ct LAMB3 / AVG Ct LAMC1 / AVG Ct MMP1 / AVG Ct MMP2 / AVG Ct MT2A / AVG Ct PCNA / AVG Ct RPL13A (housekeeping gene) / AVG Ct SIRT1 / AVG Ct TGFBI / AVG Ct THBS3 / AVG Ct TNC / AVG Ct VTN: UVB + UVA
# Description: EpiDerm-FT™ (EFT-400) tissues were produced and packaged in the MatTek Corporation GMP tissue culture production laboratories following standard procedures. Packaged tissues were stored at 4° C. overnight and then re-equilibrated in EFT-400-ASY medium overnight prior to the start of experiments. The sample size was n=3 for each treatment group in the gene expression experiments; and n=6 (two independent experiments of n=3) for the sunburned cell counts.
# Total RNA was isolated from the EFT-400 tissues (RNAqueous kit, Ambion) (n=3) and utilized for gene expression analysis by quantitative PCR on an SABioscience custom array containing 42 Human Extracellular Matrix (ECM) and Adhesion Molecules RT^2 Profiler™ PCR Array, stress and toxicity genes whose expression, based on MatTek data, are known to be dramatically altered by UV-protective compounds on UV damaged skin. […] Further, there were three internal control spots on the array that corresponded to human genomic DNA contamination (HGDC), positive PCR control (PPC), and reverse transcription control (RTC).
# EFT-400 tissues [2] = assay: Sunburned cell counts in UV-irradiated EpiDerm-FT (EFT-400) skin model tissues, H&E histology; format: cell-based, human; details: for sunburned cell formation: 200 mJ/cm2 UVB/29.94 mW/cm2 UVA, 24 hour post irradiation
# Description: Packaged tissues were stored at 4° C. overnight and then re-equilibrated in EFT-400-ASY medium overnight prior to the start of experiments. The sample size was n=3 for each treatment group in the gene expression experiments; and n=6 (two independent experiments of n=3) for the sunburned cell counts.
# Treated and untreated tissues were exposed to UV irradiation with 200 mJ/cm^2UVB/29.94 mW/cm^2UVA simulated solar UV light (Honle-500 solar lamp).
# At the conclusion of the 24 hour post-irradiation period, EFT-400 tissues were fixed in 10% formalin for 2 hours at room temperature (two independent experiments with n=3). Formalin fixed tissues were embedded in paraffin and 6 micron slices were stained with haematoxylin and eosin (H&E).
molecule,measurement,setting,value
"Nell 1: Full-length human recombinant NELL1 protein (isoform 1, SEQ ID NO: 2), expressed in a wheat germ cell-free translation system, obtained from Abnova (protein, listed as Homo sapiens) MPMDLILVVWFCVCTARTVVGFGMDPDLQMDIVTELDLVNTTLGVAQVSGMHNASKAFLFQDIEREIHAAPHVSEKLIQLFRNKSEFTILATVQQKPSTSGVILSIRELEHSYFELESSGLRDEIRYHYIHNGKPRTEALPYRMADGQWHKVALSVSASHLLLHVDCNRIYERVIDPPDTNLPPGINLWLGQRNQKHGLFKGIIQDGKIIFMPNGYITQCPNLNHTCPTCSDFLSLVQGIMDLQELLAKMTAKLNYAETRLSQLENCHCEKTCQVSGLLYRDQDSWVDGDHCRNCTCKSGAVECRRMSCPPLNCSPDSLPVHIAGQCCKVCRPKCIYGGKVLAEGQRILTKSCRECRGGVLVKITEMCPPLNCSEKDHILPENQCCRVCRGHNFCAEGPKCGENSECKNWNTKATCECKSGYISVQGDSAYCEDIDECAAKMHYCHANTVCVNLPGLYRCDCVPGYIRVDDFSCTEHDECGSGQHNCDENAICTNTVQGHSCTCKPGYVGNGTICRAFCEEGCRYGGTCVAPNKCVCPSGFTGSHCEKDIDECSEGIIECHNHSRCVNLPGWYHCECRSGFHDDGTYSLSGESCIDIDECALRTHTCWNDSACINLAGGFDCLCPSGPSCSGDCPHEGGLKHNGQVWTLKEDRCSVCSCKDGKIFCRRTACDCQNPSADLFCCPECDTRVTSQCLDQNGHKLYRSGDNWTHSCQQCRCLEGEVDCWPLTCPNLSCEYTAILEGECCPRCVSDPCLADNITYDIRKTCLDSYGVSRLSGSVWTMAGSPCTTCKCKNGRVCCSVDFECLQNN",significance of further increase of AQP3 RNA after UV exposure,"EFT-400 tissues [1]; UV-irradiated, 100 ng/ml",highly significant
same,UV-elevated levels of AQP3,"EFT-400 tissues [1]; UV-irradiated, 150 ng/ml",did not have the same effect
same,UV-induced increase in IL-1β RNA level,"EFT-400 tissues [1]; UV-irradiated, 150 ng/ml",did not
same,UV-induced increase in IL-8 RNA level,"EFT-400 tissues [1]; UV-irradiated, 150 ng/ml",did not
same,UV-induced increase in MMP-1 RNA level,"EFT-400 tissues [1]; UV-irradiated, 150 ng/ml",did not
same,AVG Ct ACTB (housekeeping gene),EFT-400 tissues [1]; 100 ng/ml Nell 1,17.67
same,AVG Ct AQP3,EFT-400 tissues [1]; 100 ng/ml Nell 1,21.13
same,AVG Ct BCL2L1,EFT-400 tissues [1]; 100 ng/ml Nell 1,23.22
same,AVG Ct COL1A1,EFT-400 tissues [1]; 100 ng/ml Nell 1,18.36
same,AVG Ct COL4A2,EFT-400 tissues [1]; 100 ng/ml Nell 1,21.55
same,AVG Ct COL5A1,EFT-400 tissues [1]; 100 ng/ml Nell 1,22.98
same,AVG Ct COL6A1,EFT-400 tissues [1]; 100 ng/ml Nell 1,19.15
same,AVG Ct COL6A2,EFT-400 tissues [1]; 100 ng/ml Nell 1,19.19
same,AVG Ct COL7A1,EFT-400 tissues [1]; 100 ng/ml Nell 1,24.38
same,AVG Ct COL8A1,EFT-400 tissues [1]; 100 ng/ml Nell 1,26.96
same,AVG Ct COL11A1,EFT-400 tissues [1]; 100 ng/ml Nell 1,26.86
same,AVG Ct COL12A1,EFT-400 tissues [1]; 100 ng/ml Nell 1,23.95
same,AVG Ct COL14A1,EFT-400 tissues [1]; 100 ng/ml Nell 1,25.64
same,AVG Ct COL15A1,EFT-400 tissues [1]; 100 ng/ml Nell 1,25.01
same,AVG Ct COL16A1,EFT-400 tissues [1]; 100 ng/ml Nell 1,23.42
same,AVG Ct DSG1,EFT-400 tissues [1]; 100 ng/ml Nell 1,20.06
same,AVG Ct ERCC1,EFT-400 tissues [1]; 100 ng/ml Nell 1,23.26
same,AVG Ct FN1,EFT-400 tissues [1]; 100 ng/ml Nell 1,19.79
same,AVG Ct GAPDH (housekeeping gene),EFT-400 tissues [1]; 100 ng/ml Nell 1,18.15
same,AVG Ct GDF15,EFT-400 tissues [1]; 100 ng/ml Nell 1,22.21
same,AVG Ct GSTM3,EFT-400 tissues [1]; 100 ng/ml Nell 1,29.13
same,AVG Ct HSPA8,EFT-400 tissues [1]; 100 ng/ml Nell 1,19.74
same,AVG Ct IL1A,EFT-400 tissues [1]; 100 ng/ml Nell 1,24.03
same,AVG Ct IL1B,EFT-400 tissues [1]; 100 ng/ml Nell 1,26.48
same,AVG Ct IL8,EFT-400 tissues [1]; 100 ng/ml Nell 1,17.72
same,AVG Ct KAL1,EFT-400 tissues [1]; 100 ng/ml Nell 1,31.65
same,AVG Ct KRT16,EFT-400 tissues [1]; 100 ng/ml Nell 1,16.35
same,AVG Ct LAMA1,EFT-400 tissues [1]; 100 ng/ml Nell 1,28.16
same,AVG Ct LAMA2,EFT-400 tissues [1]; 100 ng/ml Nell 1,25.03
same,AVG Ct LAMA3,EFT-400 tissues [1]; 100 ng/ml Nell 1,22.41
same,AVG Ct LAMA5,EFT-400 tissues [1]; 100 ng/ml Nell 1,26.3
same,AVG Ct LAMB1,EFT-400 tissues [1]; 100 ng/ml Nell 1,22.34
same,AVG Ct LAMB3,EFT-400 tissues [1]; 100 ng/ml Nell 1,23.78
same,AVG Ct LAMC1,EFT-400 tissues [1]; 100 ng/ml Nell 1,22.72
same,AVG Ct MMP1,EFT-400 tissues [1]; 100 ng/ml Nell 1,17.91
same,AVG Ct MMP2,EFT-400 tissues [1]; 100 ng/ml Nell 1,18.77
same,AVG Ct MT2A,EFT-400 tissues [1]; 100 ng/ml Nell 1,16.81
same,AVG Ct PCNA,EFT-400 tissues [1]; 100 ng/ml Nell 1,23.31
same,AVG Ct RPL13A (housekeeping gene),EFT-400 tissues [1]; 100 ng/ml Nell 1,20.55
same,AVG Ct SIRT1,EFT-400 tissues [1]; 100 ng/ml Nell 1,26
same,AVG Ct TGFBI,EFT-400 tissues [1]; 100 ng/ml Nell 1,21.97
same,AVG Ct THBS3,EFT-400 tissues [1]; 100 ng/ml Nell 1,28.28
same,AVG Ct TNC,EFT-400 tissues [1]; 100 ng/ml Nell 1,20.22
same,AVG Ct VTN,EFT-400 tissues [1]; 100 ng/ml Nell 1,31.83
same,AVG Ct ACTB (housekeeping gene),EFT-400 tissues [1]; 150 ng/ml Nell 1,17.99
same,AVG Ct AQP3,EFT-400 tissues [1]; 150 ng/ml Nell 1,21.71
same,AVG Ct BCL2L1,EFT-400 tissues [1]; 150 ng/ml Nell 1,23.45
same,AVG Ct COL1A1,EFT-400 tissues [1]; 150 ng/ml Nell 1,18.78
same,AVG Ct COL4A2,EFT-400 tissues [1]; 150 ng/ml Nell 1,21.59
same,AVG Ct COL5A1,EFT-400 tissues [1]; 150 ng/ml Nell 1,23.33
same,AVG Ct COL6A1,EFT-400 tissues [1]; 150 ng/ml Nell 1,19.34
same,AVG Ct COL6A2,EFT-400 tissues [1]; 150 ng/ml Nell 1,19.56
same,AVG Ct COL7A1,EFT-400 tissues [1]; 150 ng/ml Nell 1,25.28
same,AVG Ct COL8A1,EFT-400 tissues [1]; 150 ng/ml Nell 1,27.46
same,AVG Ct COL11A1,EFT-400 tissues [1]; 150 ng/ml Nell 1,27.23
same,AVG Ct COL12A1,EFT-400 tissues [1]; 150 ng/ml Nell 1,24.22
same,AVG Ct COL14A1,EFT-400 tissues [1]; 150 ng/ml Nell 1,25.86
same,AVG Ct COL15A1,EFT-400 tissues [1]; 150 ng/ml Nell 1,25.2
same,AVG Ct COL16A1,EFT-400 tissues [1]; 150 ng/ml Nell 1,23.71
same,AVG Ct DSG1,EFT-400 tissues [1]; 150 ng/ml Nell 1,20.21
same,AVG Ct ERCC1,EFT-400 tissues [1]; 150 ng/ml Nell 1,23.41
same,AVG Ct FN1,EFT-400 tissues [1]; 150 ng/ml Nell 1,20.13
same,AVG Ct GAPDH (housekeeping gene),EFT-400 tissues [1]; 150 ng/ml Nell 1,18.08
same,AVG Ct GDF15,EFT-400 tissues [1]; 150 ng/ml Nell 1,21.87
same,AVG Ct GSTM3,EFT-400 tissues [1]; 150 ng/ml Nell 1,29.32
same,AVG Ct HSPA8,EFT-400 tissues [1]; 150 ng/ml Nell 1,20.04
same,AVG Ct IL1A,EFT-400 tissues [1]; 150 ng/ml Nell 1,23.99
same,AVG Ct IL1B,EFT-400 tissues [1]; 150 ng/ml Nell 1,25.98
same,AVG Ct IL8,EFT-400 tissues [1]; 150 ng/ml Nell 1,17.08
same,AVG Ct KAL1,EFT-400 tissues [1]; 150 ng/ml Nell 1,32.24
same,AVG Ct KRT16,EFT-400 tissues [1]; 150 ng/ml Nell 1,16.47
same,AVG Ct LAMA1,EFT-400 tissues [1]; 150 ng/ml Nell 1,28.02
same,AVG Ct LAMA2,EFT-400 tissues [1]; 150 ng/ml Nell 1,25.17
same,AVG Ct LAMA3,EFT-400 tissues [1]; 150 ng/ml Nell 1,22.96
same,AVG Ct LAMA5,EFT-400 tissues [1]; 150 ng/ml Nell 1,27.06
same,AVG Ct LAMB1,EFT-400 tissues [1]; 150 ng/ml Nell 1,22.48
same,AVG Ct LAMB3,EFT-400 tissues [1]; 150 ng/ml Nell 1,24.32
same,AVG Ct LAMC1,EFT-400 tissues [1]; 150 ng/ml Nell 1,22.88
same,AVG Ct MMP1,EFT-400 tissues [1]; 150 ng/ml Nell 1,17.75
same,AVG Ct MMP2,EFT-400 tissues [1]; 150 ng/ml Nell 1,18.67
same,AVG Ct MT2A,EFT-400 tissues [1]; 150 ng/ml Nell 1,16.56
same,AVG Ct PCNA,EFT-400 tissues [1]; 150 ng/ml Nell 1,23.58
same,AVG Ct RPL13A (housekeeping gene),EFT-400 tissues [1]; 150 ng/ml Nell 1,20.64
same,AVG Ct SIRT1,EFT-400 tissues [1]; 150 ng/ml Nell 1,26.02
same,AVG Ct TGFBI,EFT-400 tissues [1]; 150 ng/ml Nell 1,21.91
same,AVG Ct THBS3,EFT-400 tissues [1]; 150 ng/ml Nell 1,28.7
same,AVG Ct TNC,EFT-400 tissues [1]; 150 ng/ml Nell 1,20.2
same,AVG Ct VTN,EFT-400 tissues [1]; 150 ng/ml Nell 1,32.41
same,gene expression in the absence of UV irradiation,EFT-400 tissues [1]; no UV,some decreases in gene expression
same,sunburned cell formation,EFT-400 tissues [2]; 100 ng/ml,decrease in sunburned cell formation
same,sunburned cell formation,EFT-400 tissues [2]; 150 ng/ml,did not decrease sunburned cell formation to the same extent as 100 ng/ml NELL1
same,number of sunburned cells as compared to UV-only controls,"EFT-400 tissues [2]; pre-treatment 30 minutes prior to UV, continued 24 hours post-irradiation",statistically significant reduction in the number of sunburned cells
